Test results from the supplement of paper PMC9170038.

System: K4 kissing-loop RNA reporter
Test: apparent KD of K4 kissing-loop reporter; higher = weaker reporter binding
Conditions: Eterna round: R107; input ligand: arginine 13.2 mM
Experimental: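 RNA-MaP round R107: designed RNA switches with theophylline, tryptophan, arginine or FMN aptamers are transcribed on-chip within common flanks. They are titrated with a labelled K4 kissing-loop RNA reporter in RNA-MaP buffer (100 mM Tris pH 7.5, 80 mM KCl, 4 mM MgCl2), without ligand or with the indicated ligand. Median apparent KD per design.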
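Further: bound reporter read as fluorescence of individual clusters on recovered sequencing chips by microscopy, with normalized cluster intensities fitted with a binding model.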

Sequence | apparent KD of K4 kissing-loop reporter [nM]
UUUCGUCUCUGAGGAUAUCAGAGGAGAGUGAUGUUCUCCCAUAGCCCAGUGAUGUUGGAUGCUAUCUGAGAAGGCAGUGGGCGAA [Same State FMN B GF 13] | 141
AUACGUUUUUGUGAUACCAGACAUGUGAGUGAUGUUUACAUAUAUAUUUAAUAUUUAGCUGUCCCUUGGCAGCACUGUUUAUUUA [JR_ExcTheophyB_Sub004] | 382
ACAGGAUCGAAAGAUCCUGAGCAGUCAAAACGAGGACCGGUACGGCCGCCACUCGAAUAAGAGAGUGAUGUUCUCGACUGCAAAA [Omei inspired 10 - Reversed #K4Late] | 826
AGAACUGUCUUGGAUACCAGUGAUGUUGGUAUCGAUGUGUGAGUGCAAAGCGUCCCACAUCGCCCUUGGCAGCUAAGACAGUUCA [Omei KL Theo B Exc A v5] | 292
ACGUAGUUCUAGGAUACCAGCCAAGAUGCCAGGACAAAAGUCCUGGCAGCCAGUGAUGUUGGCCCUUGGCAGCCUAGAACUACGA [Omei KL Theo B Exc B v9] | 115
AGUAUGGCAACAUUGCAAGUAGCCGUACCACGAGGACCGGUACGGCCGCCACUCGAUAACUUGCAGUGAUGUUGCAAGUAAGAAU [(T)''-(K)'-(T)'-(T1)-(T2)-(K1)-(K2)_Design4] | 206
UGACGUAAAACCGUCGAAUCGCUGUGAGAAGGAGCGGUAAAAUUGCCAGGUAGGUCGCUCACAGCCUCACAGUGAUGUUGUGGGA [Sovetequ] | 104
ACAUGUUCCAGUGAUGUUGGCGUACGUGAUACCAGACGAAUAAAAGUCCCUUGGCAGCACAAAUAAGCCAAGAUAGGUGAAUGAU [#04 K4 Theophylline A Exclusion] | 272
AGCUCAGAGUGACUCGAUAAGAGUCACAAACGAGGACCGGUACGGCCGCCACUCGAAACAAAGAGAGUGAUGUUCUCGCUGAGCA [FiskerMod 10 - Jieux - Same State Tryptophan A] | 121
CUAGGCAACACAGGAUAUGUCCGAGUGAUGUUCGAGCCUUUCCAUUGACGAAAUUAAUGGUGGGUGACAGAAGGGUGAGUGCUGA [Xezaqu] | 577
UUGCAUGCUAGGGAAACCUAGCAUGCAUGCCGAGGACCGGUACGGCCGCCACUCGAACGAGUGAUGUUCGUUGACCAAAAUAAAA | 468
CGCAGUGAUGUUGCUAUUAUUCUUGAUUAACGAGGACCGGUACGGCCGCCACUCGAUUUCUAUCUAAUUUAGUGUUAUGUUGAUU [JR_ExcTryptoA_Sub007] | 423
AAGCAGUCACUCGAAACCAUCGAAGAUGGUCGAGGACCGGUACGGCCGCCACUCGGAGUGAUGUUCCGAAGACUGCAAAAUAAAA [#SwitchBubble 10] | 334
UGGCGGCAAGGGUUAUUGGAAAGUAUUCGACGAGGACCGGUACGGCCGCCACUCGAACACCAGUGAUGUUGGUCUGGCUUAAGCC [Exclusion Tryptophan A GF 21] | 245
UGAGUUAGACAAAAGUCUAGCUCUGGUGAAGGAGCGUCCGAAAGGACAGGUAGGUCGCACCACCUGAGUGAUGUUCAGAAUCCUU [KL-SSArg-A22] | 506
UUUGUAUCGGGAAGGAGCGUGAAUGAUAAUGAAUAUAGUGAUGUUAUAUAUAAGAACGAAUCACAGGUAGGUCGCCCGGAUGAGU [SSArgB.N] | 387

Sequence | apparent KD of K4 kissing-loop reporter [nM]
CGAGAGCUCUUGUUUGGAUGUGUUUUAUGGCGAGGACCGGUACGGCCGCCACUCGGGUGAUGUUAGUGAUGUUGAUGUAGUGAUG [qzxmullin] | 79.6
UAUCCUCGCUGAAGGAGCGAGCAUGAAGCAGUGAUGUUCCGAGCGAGUGAUGUUCGCAUAGCUCAGGUAGGUCGCAGUGGGAUUU [Same State Arginie B GF 17] | 749
GGUGACAGCCAGGAGUGAUGUAUAGAAUAGCGAGGACCGGUACGGCCGCCACUCGUGAAGAGAAGGGAGUGAUGUUCCGUAAUGG [Kazoo C] | 185
UUGGAUUGAUGAGAGUUGAUUUGGUAGGAAGGAGCGGCCGAAAGGCCAGGUAGGUCGCCUAUUGACAGUGAUGUUGUUAUAUGGU [#16] | 228
UAUCUAUGCUCGGCCGCCACUAGGACCGGGAGGUAACUAGUGAUGUUAGUAUCUUCGGCCGCCACUAGGACCGGGAGUGUAGAUA [KL-SSTryp-B17 #DoubleAptamer] | 95.2
CGUGCCCGGCCGGAUACCAGUGACCCGCUGGGAACCGCGGGCCCAGAGUGAUGUUCGGGACACCCUUGGCAGCCGCCUGGGCUGC [#2 Same State - Theophylline B Attempt #14 (HarryS)] | 395
AAACAAGAUGCAGGAUAUACGGACCCAGUGAUGUUGGGUAGAAUUGUCCCGGCAAUCCUUGUGGCAGUAGAAGGGCAAUAAAAGA [Gexeraora] | 134
AAACUUGCAGUGAUGUUGCAAGUAGGUGAUACCAGCAUCGAAAGAUGCCCUUGGCAGCACCAUCUUGUAACAUAGGUAUCACCAA [(H1)-(H2)-(T1)-(T2)-(H)'-(T)'_Design4] | 208
AAACAUCACUGGGAGUGAUGUUCUCAGUGACGAGGACCGGUACGGCCGCCACUCGCGAGAGAACUAGUCUAGUCUUGACUGCAUU [Excl Tryptophan A V14] | 333
UGUCGUUCUAGUGAUGUUAGGACAGUUAUGAAGGAUAUACACACUCGUAGAAGGUCAGCUGCGGAAUGGCGAUUACGGUGAUUCG [theeternabot_sameState_KL_FMN_A_39] | 107
GUGCGGCUAGUGAUGUUGGUUGCGUGGGAAGGAGCGCAGUAAAAUGCAGGUAGGUCGCCCGCAUCUCUGAUAAAAGAUUAAUUCA [KL-SSArg-A9] | 196
CACGCCUGUUGUCUGGUAGACAGAUCAGAUACCAGACAUAGUGAUGUCCCUUGGCAGCUGAACAUCCAGUGAUGUUGGAUGCGUU [Theo A SS t11] | 333
CCUAUCUCAUACGAUACCAGUCAAUAUAAACGAGUGAUGUUCGAAAUAAUAUGCCAUCACGACCCUUGGCAGCGUAUGGGAUAGG [Ex Theophylline B K4 6] | 88.8
GGCGGCCGCGCGUAAGCGCGGCCGGCCGAUACCAGCGCGACGGCGCGCCCUUGGCAGCGGCGCCGAGUGAUGUUCGGCCUGCCGG [#2 Same State - Theophylline A Attempt #17 (HarryS)] | 381
UAUUUAAAUAAAAUAAAAUAAAUUGCUGAUACCAGAGUCAAUUGACUCCCUUGGCAGCGGAUCGAGUGAUGUUCGUAAAAUUUAU [AK2.1 SS Theophylline A] | 57.7
AAUUUAUUAACUGAUACCAGACUUUAGCGCGUUUAUAAGUCAAGUGAUGUUUGACUAAUUGUCCCUUGGCAGCAGUAUUUAUUAA [JR_SSTheophyB_Sub021] | 210

Same assay, conditions: Eterna round: R107; input ligand: none

Sequence | apparent KD of K4 kissing-loop reporter [nM]
CCUAUCUCAUACGAUACCAGUGAUUAACCAGUGAUGUUGGAAUAACCAAGGAAUAUUUAUCACCCUUGGCAGCGUAUGGGAUAGG [Ex Theophylline B K4 28] | 83.3
GCGCGUCAUGUCAGCGGUGACACUGUCGAUACCAGUGCCGAAAGGCGCCCUUGGCAGCGACGUGCUGGAGUGAUGUUCCAGCGUU [#2 Exclusion - Theophylline A Attempt #30 (HarryS)] | 151
AAUGUACAAGUGAUGUUUGUACUUUCCGAAGGAGCGUCUAAUAAGACAGGUAGGUCGCGGAUUCUCUAAAUUAUCAGGUCAUUAA [JR_ExcArginiA_Sub018] | 94.3
UGUACCGAGUCAGGAUAUGGCGUCGAAAGACGAAACCAGUGAUGUUGGAAAAUCUGCGAAAGCAGUCCAGAAGGGACUUGGUACU [FmnBS 24 #SwitchBubble #StaticStem #DoubleMagnetSystem] | 302
GCCUAGUGAUGUUGGGUAAUUUAAACCGGGCGAGGACCGGUACGGCCGCCACUCGGAAACACAACAAAAUUUAAUUUAAUUUAAA [Exclusion - Trytophan A] | 174
UGAUACCAGACUGAUACCAGCCACAGAGUCAAAGACUCUGAAAAGGAAACCAGUGAUGUUGGCCCUUGGCAGCAGUCUGGUAUCU [TheoBX 15 #SwitchBubble #StaticStem] | 171
GUAUCGCUAGGAGGAUAUUUCAAUUUGACUCUUUGAGUUAAUACGGAGUGAUGUUCCGAUUUACGGAAAGAAGGCCUAGUGAUAC [FMN B 13] | 238
UUUAGAUGAAGUGAUACCAGACUUGAAAGUGAUGUUUUCCAAUAAUUUAAAUUAUUAGCUGUCCCUUGGCAGCACAGUUUAUUUA [JR_ExcTheophyB_Sub008] | 282
AGUUCUUGCCGAAGGAGCGAGGCAGAGUGAUGUUCUGCAAGAGGUCGAAAGACCUCUCUGCCUCAGGUAGGUCGCGGCAUGAACA [Omei KL Arginine B Exc A v3] | 483
AUUUUUAACUGAGGAUAUCGAAUUUAUGUAGUGAUGUUACUUUAAAUUAAAAUUUUAAUUUCUUAACGAGAAGGCAGAAUAAUUA [JR_SSFMNB_Sub025] | 109
UUUCGUCUCUGAGGAUAUCAGAGGAGAGUGAUGUUCUCCCAUAGCCCAGUGAUGUUGGAUGCUAUCUGAGAAGGCAGUGGGCGAA [Same State FMN B GF 13] | 164
AUACGUUUUUGUGAUACCAGACAUGUGAGUGAUGUUUACAUAUAUAUUUAAUAUUUAGCUGUCCCUUGGCAGCACUGUUUAUUUA [JR_ExcTheophyB_Sub004] | 420
ACAGGAUCGAAAGAUCCUGAGCAGUCAAAACGAGGACCGGUACGGCCGCCACUCGAAUAAGAGAGUGAUGUUCUCGACUGCAAAA [Omei inspired 10 - Reversed #K4Late] | 1210
AGAACUGUCUUGGAUACCAGUGAUGUUGGUAUCGAUGUGUGAGUGCAAAGCGUCCCACAUCGCCCUUGGCAGCUAAGACAGUUCA [Omei KL Theo B Exc A v5] | 341
ACGUAGUUCUAGGAUACCAGCCAAGAUGCCAGGACAAAAGUCCUGGCAGCCAGUGAUGUUGGCCCUUGGCAGCCUAGAACUACGA [Omei KL Theo B Exc B v9] | 132
AGUAUGGCAACAUUGCAAGUAGCCGUACCACGAGGACCGGUACGGCCGCCACUCGAUAACUUGCAGUGAUGUUGCAAGUAAGAAU [(T)''-(K)'-(T)'-(T1)-(T2)-(K1)-(K2)_Design4] | 227
UGACGUAAAACCGUCGAAUCGCUGUGAGAAGGAGCGGUAAAAUUGCCAGGUAGGUCGCUCACAGCCUCACAGUGAUGUUGUGGGA [Sovetequ] | 246
ACAUGUUCCAGUGAUGUUGGCGUACGUGAUACCAGACGAAUAAAAGUCCCUUGGCAGCACAAAUAAGCCAAGAUAGGUGAAUGAU [#04 K4 Theophylline A Exclusion] | 495
AGCUCAGAGUGACUCGAUAAGAGUCACAAACGAGGACCGGUACGGCCGCCACUCGAAACAAAGAGAGUGAUGUUCUCGCUGAGCA [FiskerMod 10 - Jieux - Same State Tryptophan A] | 176
CUAGGCAACACAGGAUAUGUCCGAGUGAUGUUCGAGCCUUUCCAUUGACGAAAUUAAUGGUGGGUGACAGAAGGGUGAGUGCUGA [Xezaqu] | 620
UUGCAUGCUAGGGAAACCUAGCAUGCAUGCCGAGGACCGGUACGGCCGCCACUCGAACGAGUGAUGUUCGUUGACCAAAAUAAAA | 337
